In IntAct's records for PubMed 23706744:

B1: Protein arginine N-methyltransferase 1 (Saccharomyces cerevisiae), P38074 (parent)
chain: MSKTAVKDSATEKTKLSESEQHYFNSYDHYGIHEEMLQDTVRTLSYRNAIIQNKDLFKDKIVLDVGCGTGILSMFAAKHGAKHVIGVDMSSIIEMAKELVELNGFSDKITLLRGKLEDVHLPFPKVDIIISEWMGYFLLYESMMDTVLYARDHYLVEGGLIFPDKCSIHLAGLEDSQYKDEKLNYWQDVYGFDYSPFVPLVLHEPIVDTVERNNVNTTSDKLIEFDLNTVKISDLAFKSNFKLTAKRQDMINGIVTWFDIVFPAPKGKRPVEFSTGPHAPYTHWKQTIFYFPDDLDAETGDTIEGELVCSPNEKNNRDLNIKISYKFESNGIDGNSRSRKNEGSYLMH
partner: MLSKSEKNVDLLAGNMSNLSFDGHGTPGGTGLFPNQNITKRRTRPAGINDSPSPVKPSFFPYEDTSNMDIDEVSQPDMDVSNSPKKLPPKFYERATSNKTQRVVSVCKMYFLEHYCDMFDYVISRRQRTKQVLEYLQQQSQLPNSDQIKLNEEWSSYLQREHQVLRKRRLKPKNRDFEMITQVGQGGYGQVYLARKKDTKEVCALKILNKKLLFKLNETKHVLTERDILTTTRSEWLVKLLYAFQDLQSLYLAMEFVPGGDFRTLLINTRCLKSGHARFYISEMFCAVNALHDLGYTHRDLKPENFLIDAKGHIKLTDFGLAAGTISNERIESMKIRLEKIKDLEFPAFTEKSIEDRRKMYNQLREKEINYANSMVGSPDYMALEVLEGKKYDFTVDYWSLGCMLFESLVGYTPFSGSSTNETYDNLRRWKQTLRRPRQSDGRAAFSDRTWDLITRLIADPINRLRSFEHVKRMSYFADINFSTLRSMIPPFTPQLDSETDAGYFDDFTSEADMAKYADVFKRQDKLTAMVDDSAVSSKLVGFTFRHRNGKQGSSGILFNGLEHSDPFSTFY
B2: Protein arginine N-methyltransferase 1 (Saccharomyces cerevisiae), P38074 (parent)
chain: B1 chain

Variants of: B1
Details: with dbf2_yeast DBF2, P22204

With S9A as the variant, how does the “effect of a mutation on the interaction” value read?
Its value is “disrupting interaction strength”.

Variants of: B2
Details: with pp2a2_yeast PPH22, P23595
Chain of pp2a2_yeast PPH22, P23595 (P23595 whole entry): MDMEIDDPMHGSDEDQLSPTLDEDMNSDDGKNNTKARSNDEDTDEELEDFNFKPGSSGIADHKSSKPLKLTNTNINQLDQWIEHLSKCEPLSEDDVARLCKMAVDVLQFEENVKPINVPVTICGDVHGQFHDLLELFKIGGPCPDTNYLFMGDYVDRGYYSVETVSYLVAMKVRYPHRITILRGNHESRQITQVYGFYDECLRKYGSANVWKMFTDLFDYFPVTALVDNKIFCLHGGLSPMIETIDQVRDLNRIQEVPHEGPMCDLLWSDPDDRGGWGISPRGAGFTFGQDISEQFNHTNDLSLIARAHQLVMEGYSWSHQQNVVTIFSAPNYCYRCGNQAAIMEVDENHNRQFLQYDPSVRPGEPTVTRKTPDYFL

For S9A, which “effect of a mutation on the interaction” value is on record?
The value was “disrupting interaction strength”.
